Biological target: recombinant mouse αvβ8 integrin extracellular domains (mouse) (UniProt P43406)
Test: AlphaLISA blocking of mouse LAP-6His binding

recombinant mouse αvβ8 integrin extracellular domains (mouse), sequence (P43406 other isoform, or with tags, fused parts or gaps, form in doubt, chain 1 of 2): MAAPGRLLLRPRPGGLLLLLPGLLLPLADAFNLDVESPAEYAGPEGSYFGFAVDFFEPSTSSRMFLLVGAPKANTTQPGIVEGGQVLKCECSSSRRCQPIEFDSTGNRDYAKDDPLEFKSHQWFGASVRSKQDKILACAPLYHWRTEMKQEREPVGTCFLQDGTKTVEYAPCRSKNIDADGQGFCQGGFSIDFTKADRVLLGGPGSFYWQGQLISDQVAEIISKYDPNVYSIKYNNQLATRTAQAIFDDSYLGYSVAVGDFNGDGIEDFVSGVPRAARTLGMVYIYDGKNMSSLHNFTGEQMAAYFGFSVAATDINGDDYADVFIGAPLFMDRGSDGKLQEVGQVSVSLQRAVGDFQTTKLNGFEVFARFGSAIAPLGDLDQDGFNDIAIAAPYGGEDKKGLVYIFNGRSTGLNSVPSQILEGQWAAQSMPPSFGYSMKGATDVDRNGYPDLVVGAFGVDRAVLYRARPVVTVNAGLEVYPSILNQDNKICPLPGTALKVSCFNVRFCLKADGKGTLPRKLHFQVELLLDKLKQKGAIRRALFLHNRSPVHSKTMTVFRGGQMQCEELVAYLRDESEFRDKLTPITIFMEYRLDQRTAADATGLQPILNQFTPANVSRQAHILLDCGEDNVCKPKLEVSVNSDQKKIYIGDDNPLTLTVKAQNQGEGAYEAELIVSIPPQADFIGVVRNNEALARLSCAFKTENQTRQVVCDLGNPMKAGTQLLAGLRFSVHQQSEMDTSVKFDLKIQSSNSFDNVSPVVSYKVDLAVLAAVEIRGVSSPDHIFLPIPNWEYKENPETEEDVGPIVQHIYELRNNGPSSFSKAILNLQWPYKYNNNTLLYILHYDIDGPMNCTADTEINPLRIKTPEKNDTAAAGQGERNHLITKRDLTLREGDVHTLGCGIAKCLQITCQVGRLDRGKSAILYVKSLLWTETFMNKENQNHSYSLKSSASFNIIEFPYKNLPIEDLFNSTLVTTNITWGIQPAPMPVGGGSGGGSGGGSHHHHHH
recombinant mouse αvβ8 integrin extracellular domains (mouse), sequence (Q0VBD0 other isoform, or with tags, fused parts or gaps, form in doubt, chain 2 of 2, further chain): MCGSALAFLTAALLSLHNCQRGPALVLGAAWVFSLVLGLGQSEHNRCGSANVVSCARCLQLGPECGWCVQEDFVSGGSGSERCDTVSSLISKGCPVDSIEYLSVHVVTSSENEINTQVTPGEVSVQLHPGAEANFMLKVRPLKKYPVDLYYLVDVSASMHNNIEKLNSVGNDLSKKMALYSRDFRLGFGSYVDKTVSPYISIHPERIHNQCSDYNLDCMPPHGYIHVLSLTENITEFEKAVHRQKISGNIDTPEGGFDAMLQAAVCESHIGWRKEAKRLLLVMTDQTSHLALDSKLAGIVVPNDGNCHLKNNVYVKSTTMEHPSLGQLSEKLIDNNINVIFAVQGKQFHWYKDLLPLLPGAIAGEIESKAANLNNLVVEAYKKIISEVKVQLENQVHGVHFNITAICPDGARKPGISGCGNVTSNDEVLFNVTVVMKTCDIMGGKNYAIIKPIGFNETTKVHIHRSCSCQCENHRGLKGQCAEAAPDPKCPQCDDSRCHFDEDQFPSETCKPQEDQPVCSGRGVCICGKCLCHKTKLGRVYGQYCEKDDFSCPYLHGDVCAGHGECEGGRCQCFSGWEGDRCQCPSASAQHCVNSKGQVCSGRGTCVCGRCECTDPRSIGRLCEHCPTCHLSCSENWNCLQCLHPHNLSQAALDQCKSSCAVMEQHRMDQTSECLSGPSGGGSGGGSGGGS

IC50 [nM] | Binder
102 | Ab-29 (antibody, V domains shown) VH: ELQLQESGPGLVKPSETLSLTCTVSGGSISSNSYYWGWIRQPPGKGLEWIGSIYYSGSTYYNPSLKSRVTISVDTSKNQFSLKLSSVTAADTAVYYCARVRRVAGRGDSYYYYYGMDVWGQGTTVTVSS VL: DIQMTQSPSSVSASVGDRVTITCRASQGISRWLAWYQQKPGKAPKLLIYAASSLQSGVPSRFSGSGSGTDFTLTISSLQPEDFATYYCQQAISHPWTFGGGTKVEIK
25.1 | Ab-30 (antibody, V domains shown) VH: EVQLQESGPGLVKPSETLSLTCAVSGYSISSGYYWGWIRQPPGKGLEWIGSIYHSGNTYYNPSLKSRVTISVDTSKNQFSLKLSSVTAADTAVYYCARVPRYSRGDAYYYYGMDVWGQGTTVTVSS VL: DIQMTQSPSTLSASVGDRVTITCRASQSISSWLAWYQQKPGKAPKLLIYKASSLESGVPSRFSGSGSGTEFTLTISSLQPDDFATYYCQQVKIYPPYTFGGGTKVEIK
66.3 | Ab-31 (antibody, V domains shown) VH: EVQLQESGPGLVKPSETLSLTCAVSGYSISSGYYWGWIRQPPGKGLEWIGSIYHSGNTYYNPSLKSRVTISVDTSKNQFSLKLSSVTAADTAVYYCARVPRYSRGDAYYYYGMDVWGQGTTVTVSS VL: DIQMTQSPSTLSASVGDRVTITCRASQSIGSWLAWYQQKPGKAPKLLIYKASSLESGVPSRFSGSGSGTEFTLTISSLQPDDFATYYCQQSGPYPWTFGGGTKVEIK

Reference: patent US20250313635A1, “ANTI-INTEGRIN ANTIBODIES AND USES THEREOF” (Merck Sharp & Dohme LLC, priority 2022, published 2025)
